From patent publication US20230407373A1 (priority 2020, published 2023)

Key:
[1] = tested on: SARS-CoV-2 gRNA and sgRNAs; assay type: binding; conditions: for target (unweighted spectral count of the protein in the RNP capture experiment): LC-MS/MS label-free quantification, probe pool not given; for back-ground (unweighted spectral count of the protein in the control experiment): protein background of the control (e.g. no-probe) experiment; for target (unweighted spectral count in RNP capture): Probe II capture, LC-MS/MS LFQ; for background (unweighted spectral count in control): no-probe control pull-down, used as background for Probe II
SARS-CoV-2 gRNA = assay type: binding; conditions: for target (unweighted spectral count of the protein in the RNP capture): LC-MS/MS, Probe I sample (first 199 lines of Table 2)

B1: PA2G4 (protein, UniProt Q9UQ80 2-394, looked up)
Proliferation-associated …: SGEDEQQEQTIAEDLVVTKYKMGGDIANRVLRSLVEASSSGVSVLSLCEKGDAMIMEETGKIFKKEKEMKKGIAFPTSISVNNCVCHFSPLKSDQDYILKEGDLVKIDLGVHVDGFIANVAHTFVVDVAQGTQVTGRKADVIKAAHLCAEAALRLVKPGNQNTQVTEAWNKVAHSFNCTPIEGMLSHQLKQHVIDGEKTIIQNPTDQQKKDHEKAEFEVHEVYAVDVLVSSGEGKAKDAGQRTTIYKRDPSKQYGLKMKTSRAFFSEVERRFDAMPFTLRAFEDEKKARMGVVECAKHELLQPFNVLYEKEGEFVAQFKFTVLLMPNGPMRITSGPFEPDLYKSEMEVQDAELKALLQSSASRKTQKKKKKKASKTAENATSGETLEENEAGD
[1]
  target (unweighted spectral count of the protein in the RNP capture experiment): 5
  back-ground (unweighted spectral count of the protein in the control experiment): 1
SARS-CoV-2 gRNA; […]
  target (unweighted spectral count of the protein in the RNP capture): 7

B2: PGK2 (protein, UniProt P07205 2-417, looked up)
Phosphoglycerate kinase 2: SLSKKLTLDKLDVRGKRVIMRVDFNVPMKKNQITNNQRIKASIPSIKYCLDNGAKAVVLMSHLGRPDGVPMPDKYSLAPVAVELKSLLGKDVLFLKDCVGAEVEKACANPAPGSVILLENLRFHVEEEGKGQDPSGKKIKAEPDKIEAFRASLSKLGDVYVNDAFGTAHRAHSSMVGVNLPHKASGFLMKKELDYFAKALENPVRPFLAILGGAKVADKIQLIKNMLDKVNEMIIGGGMAYTFLKVLNNMEIGASLFDEEGAKIVKDIMAKAQKNGVRITFPVDFVTGDKFDENAQVGKATVASGISPGWMGLDCGPESNKNHAQVVAQARLIVWNGPLGVFEWDAFAKGTKALMDEIVKATSKGCITVIGGGDTATCCAKWNTEDKVSHVSTGGGASLELLEGKILPGVEALSNM
[1]
  target (unweighted spectral count of the protein in the RNP capture experiment): 5
  back-ground (unweighted spectral count of the protein in the control experiment): 1
SARS-CoV-2 gRNA; Probe I capture, […], LC-MS/MS LFQ
  target (unweighted spectral count in RNP capture): 5
SARS-CoV-2 gRNA; no-probe control pull-down, used as background for Probe I
  background (unweighted spectral count in control): 1

B3: TRA2A (protein, UniProt Q13595 2-282, looked up)
Transformer-2 protein homolog …: SDVEENNFEGRESRSQSKSPTGTPARVKSESRSGSRSPSRVSKHSESHSRSRSKSRSRSRRHSHRRYTRSRSHSHSHRRRSRSRSYTPEYRRRRSRSHSPMSNRRRHTGSRANPDPNTCLGVFGLSLYTTERDLREVFSRYGPLSGVNVVYDQRTGRSRGFAFVYFERIDDSKEAMERANGMELDGRRIRVDYSITKRAHTPTPGIYMGRPTHSGGGGGGGGGGGGGGGGRRRDSYYDRGYDRGYDRYEDYDYRYRRRSPSPYYSRYRSRSRSRSYSPRRY
[1]
  target (unweighted spectral count in RNP capture): 7
  background (unweighted spectral count in control): 1
SARS-CoV-2 gRNA; […]
  target (unweighted spectral count of the protein in the RNP capture): 6

B4: DDX3Y (protein, UniProt O15523 2-660, looked up)
ATP-dependent RNA helicase …: SHVVVKNDPELDQQLANLDLNSEKQSGGASTASKGRYIPPHLRNREASKGFHDKDSSGWSCSKDKDAYSSFGSRDSRGKPGYFSERGSGSRGRFDDRGRSDYDGIGNRERPGFGRFERSGHSRWCDKSVEDDWSKPLPPSERLEQELFSGGNTGINFEKYDDIPVEATGSNCPPHIENFSDIDMGEIIMGNIELTRYTRPTPVQKHAIPIIKGKRDLMACAQTGSGKTAAFLLPILSQIYTDGPGEALKAVKENGRYGRRKQYPISLVLAPTRELAVQIYEEARKFSYRSRVRPCVVYGGADIGQQIRDLERGCHLLVATPGRLVDMMERGKIGLDFCKYLVLDEADRMLDMGFEPQIRRIVEQDTMPPKGVRHTMMFSATFPKEIQMLARDFLDEYIFLAVGRVGSTSENITQKVVWVEDLDKRSFLLDILGATGSDSLTLVFVETKKGADSLEDFLYHEGYACTSIHGDRSQRDREEALHQFRSGKSPILVATAVAARGLDISNVRHVINFDLPSDIEEYVHRIGRTGRVGNLGLATSFFNEKNMNITKDLLDLLVEAKQEVPSWLENMAYEHHYKGGSRGRSKSNRFSGGFGARDYRQSSGSSSSGFGASRGSSSRSGGGGYGNSRGFGGGGYGGFYNSDGYGGNYNSQGVDWWGN
[1]
  target (unweighted spectral count in RNP capture): 27
  background (unweighted spectral count in control): 1
SARS-CoV-2 gRNA; […]
  target (unweighted spectral count of the protein in the RNP capture): 8

B5: PPP1CB (protein, UniProt P62140 2-327, looked up)
Serine/threonine-protein …: ADGELNVDSLITRLLEVRGCRPGKIVQMTEAEVRGLCIKSREIFLSQPILLELEAPLKICGDIHGQYTDLLRLFEYGGFPPEANYLFLGDYVDRGKQSLETICLLLAYKIKYPENFFLLRGNHECASINRIYGFYDECKRRFNIKLWKTFTDCFNCLPIAAIVDEKIFCCHGGLSPDLQSMEQIRRIMRPTDVPDTGLLCDLLWSDPDKDVQGWGENDRGVSFTFGADVVSKFLNRHDLDLICRAHQVVEDGYEFFAKRQLVTLFSAPNYCGEFDNAGGMMSVDETLMCSFQILKPSEKKAKYQYGGLNSGRPVTPPRTANPPKKR
[1]
  target (unweighted spectral count in RNP capture): 24
  background (unweighted spectral count in control): 4
SARS-CoV-2 gRNA; […]
  target (unweighted spectral count of the protein in the RNP capture): 17

B6: SRSF2 (protein, UniProt Q01130 2-221, looked up)
Serine/arginine-rich splicing …: SYGRPPPDVEGMTSLKVDNLTYRTSPDTLRRVFEKYGRVGDVYIPRDRYTKESRGFAFVRFHDKRDAEDAMDAMDGAVLDGRELRVQMARYGRPPDSHHSRRGPPPRRYGGGGYGRRSRSPRRRRRSRSRSRSRSRSRSRSRYSRSKSRSRTRSRSRSTSKSRSARRSKSKSSSVSRSRSRSRSRSRSRSPPPVSKRESKSRSRSKSPPKSPEEEGAVSS
[1]
  target (unweighted spectral count of the protein in the RNP capture experiment): 11
  back-ground (unweighted spectral count of the protein in the control experiment): 2
SARS-CoV-2 gRNA; […]
  target (unweighted spectral count of the protein in the RNP capture): 12

B7: MYEF2 (protein, UniProt Q9P2K5 1-600, looked up)
Myelin expression factor 2: MADANKAEVPGATGGDSPHLQPAEPPGEPRREPHPAEAEKQQPQHSSSSNGVKMENDESAKEEKSDLKEKSTGSKKANRFHPYSKDKNSGAGEKKGPNRNRVFISNIPYDMKWQAIKDLMREKVGEVTYVELFKDAEGKSRGCGVVEFKDEEFVKKALETMNKYDLSGRPLNIKEDPDGENARRALQRTGGSFPGGHVPDMGSGLMNLPPSILNNPNIPPEVISNLQAGRLGSTIFVANLDFKVGWKKLKEVFSIAGTVKRADIKEDKDGKSRGMGTVTFEQAIEAVQAISMFNGQFLFDRPMHVKMDDKSVPHEEYRSHDGKTPQLPRGLGGIGMGLGPGGQPISASQLNIGGVMGNLGPGGMGMDGPGFGGMNRIGGGIGFGGLEAMNSMGGFGGVGRMGELYRGAMTSSMERDFGRGDIGINQGFGDSFGRLGSAMIGGFAGRIGSSNMGPVGSGISGGMGSMNSVTGGMGMGLDRMSSSFDRMGPGIGAILERSIDMDRGFLSGPMGSGMRERIGSKGNQIFVRNLPFDLTWQKLKEKFSQCGHVMFAEIKMENGKSKGCGTVRFDSPESAEKACRIMNGIKISGREIDVRLDRNA
[1]
  background (unweighted spectral count in control): 1
SARS-CoV-2 gRNA; […]
  target (unweighted spectral count of the protein in the RNP capture): 19

B8: MBNL2 (protein, UniProt Q5VZF2 1-373, looked up)
Muscleblind-like protein 2: MALNVAPVRDTKWLTLEVCRQFQRGTCSRSDEECKFAHPPKSCQVENGRVIACFDSLKGRCSRENCKYLHPPTHLKTQLEINGRNNLIQQKTAAAMLAQQMQFMFPGTPLHPVPTFPVGPAIGTNTAISFAPYLAPVTPGVGLVPTEILPTTPVIVPGSPPVTVPGSTATQKLLRTDKLEVCREFQRGNCARGETDCRFAHPADSTMIDTSDNTVTVCMDYIKGRCMREKCKYFHPPAHLQAKIKAAQHQANQAAVAAQAAAAAATVMAFPPGALHPLPKRQALEKSNGTSAVFNPSVLHYQQALTSAQLQQHAAFIPTGSVLCMTPATSIDNSEIISRNGMECQESALRITKHCYCTYYPVSSSIELPQTAC
[1]
  target (unweighted spectral count in RNP capture): 7
  background (unweighted spectral count in control): 1
SARS-CoV-2 gRNA; […]
  target (unweighted spectral count of the protein in the RNP capture): 7

B9: RBMS1 (protein, UniProt P29558 1-406, looked up)
RNA-binding motif, …: MGKVWKQQMYPQYATYYYPQYLQAKQSLVPAHPMAPPSPSTTSSNNNSSSSSNSGWDQLSKTNLYIRGLPPHTTDQDLVKLCQPYGKIVSTKAILDKTTNKCKGYGFVDFDSPAAAQKAVSALKASGVQAQMAKQQEQDPTNLYISNLPLSMDEQELENMLKPFGQVISTRILRDSSGTSRGVGFARMESTEKCEAVIGHFNGKFIKTPPGVSAPTEPLLCKFADGGQKKRQNPNKYIPNGRPWHREGEVRLAGMTLTYDPTTAAIQNGFYPSPYSIATNRMITQTSITPYIASPVSAYQVQSPSWMQPQPYILQHPGAVLTPSMEHTMSLQPASMISPLAQQMSHLSLGSTGTYMPATSAMQGAYLPQYAHMQTTAVPVEEASGQQQVAVETSNDHSPYTFQPNK
[1]
  target (unweighted spectral count in RNP capture): 15
  background (unweighted spectral count in control): 1
SARS-CoV-2 gRNA; […]
  target (unweighted spectral count of the protein in the RNP capture): 11

B10: HNRNPA1L2 (protein, UniProt Q32P51 1-320, looked up)
Heterogeneous nuclear …: MSKSASPKEPEQLRKLFIGGLSFETTDESLRSHFEQWGTLTDCVVMRDPNTKRSRGFGFVTYATVEEVDAAMNTTPHKVDGRVVEPKRAVSREDSQRPGAHLTVKKIFVGGIKEDTEEHHLRDYFEQYGKIEVIEIMTDRGSGKKRGFAFVTFDDHDSVDKIVIQKYHTVKGHNCEVRKALPKQEMASASSSQRGRRGSGNFGGGRGDGFGGNDNFGRGGNFSGRGGFGGSCGGGGYGGSGDGYNGFGNDGSNFGGGGSYNDFGNYNNQSSNFGPMKGGNFGGRSSGPYGGGGQYFAKPQNQGGYGVSSSSSSYGSGRRF
[1]
  target (unweighted spectral count in RNP capture): 8
  background (unweighted spectral count in control): 1
SARS-CoV-2 gRNA; […]
  target (unweighted spectral count of the protein in the RNP capture): 6

B11: G3BP2: host protein of the core SARS-CoV-2 RNA interactome (protein, UniProt Q9UN86 2-482, looked up)
Ras GTPase-activating …: VMEKPSPLLVGREFVRQYYTLLNKAPEYLHRFYGRNSSYVHGGVDASGKPQEAVYGQNDIHHKVLSLNFSECHTKIRHVDAHATLSDGVVVQVMGLLSNSGQPERKFMQTFVLAPEGSVPNKFYVHNDMFRYEDEVFGDSEPELDEESEDEVEEEQEERQPSPEPVQENANSGYYEAHPVTNGIEEPLEESSHEPEPEPESETKTEELKPQVEEKNLEELEEKSTTPPPAEPVSLPQEPPKAFSWASVTSKNLPPSGTVSSSGIPPHVKAPVSQPRVEAKPEVQSQPPRVREQRPRERPGFPPRGPRPGRGDMEQNDSDNRRIIRYPDSHQLFVGNLPHDIDENELKEFFMSFGNVVELRINTKGVGGKLPNFGFVVFDDSEPVQRILIAKPIMFRGEVRLNVEEKKTRAARERETRGGGDDRRDIRRNDRGPGGPRGIVGGGMMRDRDGRGPPPRGGMAQKLGSGRGTGQMEGRFTGQRR
[1]
  enrichment in SARS-CoV-2 Probe II RNP capture: enriched
  background (unweighted spectral count in control): 1
SARS-CoV-2 gRNA
  enrichment in SARS-CoV-2 Probe I RNP capture: enriched
SARS-CoV-2 gRNA; […]
  target (unweighted spectral count of the protein in the RNP capture): 25
